Source: the RNAGym collection of RNA variant scans (doi:10.7554/elife.90254)

B1: LINE1-full (parent)
chain: UACGUAGGUGGUUUUCCCCUGAUAGUGCUAAGGGGGCCUGGAAGUUUGGACUGGGCAGAGCUCAACACAGCGUGGCAAAGUGGCUGUGGCUAGACUGCCUCUCUGGAUUCCUCGUCACUCAGCAGGGCAUCUCUGAGAGAAAUGCC

Variants of: B1
Assay: self-cleavage, relative activity (ratio to wild type); higher = more cleavage; in vitro, sequencing; the parent is a self-cleaving ribozyme

Row | Variant | self-cleavage
1 | UACGUAGGUGGUUUUCCCCUGAUAGUGGUAAGGGGGCCUGGAAGUUUGGACUGGGCAGAGCUCAACACAGCGUGGCAAAGUGGCUGUGGCUAGACUGCCUCUCUGGAUUCCUCGUCACUCAGCAGGGCAUCUCCGAGAGAAAUGCC | 0.82
2 | UACGUAGGUGGUUUUCCCCUGAUAGUGGUAAGGGGGCCUGGAAGUUUGGACUGGGCAGAGCUCAACACAGCGUGGCAAAGUGGCAGUGGCUAGACUGCCUCUCUGGAUUCCUCGUCACUCAGCAGGGCAUCUCUGAGAGAAAUGCC | 0.23
3 | UACGUAGGUGGUUUUCCCCUGAUAGUGUUAAGGGGGCCUGGAAGUUUGGACUGGGCUGAGCUCAACACAGCGUGGCAAAGUGGCUGUGGCUAGACUGCCUCUCUGGAUUCCUCGUCACUCAGCAGGGCAUCUCUGAGAGAAAUGCC | 0.11
4 | UACGUAGGUGGUUUUCCCCUGAUAGUGUUAAGGGGGCCUGGAAGUUUGGACUGGGCAGAGCUCAACACAGCGUGGCAAAGUGGCUGUGGCUAGACUGCCUCUCUGGAUUCCUCGUCACUCAGCAGGGCAUCUCUGAGAGAUAUGCC | 0.54
5 | UACGUAGGUGGUUUUCCCCUGAUAGUGGUAAGGGGGCCUGGAAGUUUGGACUGGGCAGAGCUCAACACAGCGUGGCAAAGUGGCUGUGGCUAGACUGCCUCUCUGGAUUCCUCGUCACUCAGCAGGGCAUCUCUGAGAGAAAAGCC | 1.45
6 | UACGUAGGUGGUUUUCCCCUGAUAGUGUUAAGGGGGCCUGGAAGUUUGGACUGGGCAGAGCUCAACACAGCGUGGCAAAGUGGCUGUGGCUAGACAGCCUCUCUGGAUUCCUCGUCACUCAGCAGGGCAUCUCUGAGAGAAAUGCC | 0.06
7 | UACGUAGGUGGUUUUCCCCUGAUAGUGUUAAGGGGGCCUGGAAGGUUGGACUGGGCAGAGCUCAACACAGCGUGGCAAAGUGGCUGUGGCUAGACUGCCUCUCUGGAUUCCUCGUCACUCAGCAGGGCAUCUCUGAGAGAAAUGCC | 1.09
8 | UACGUAGGUGGUUUUCCCCUGAUAGUGUUAAGGGGGCCUGGAAGUUUGGACUGGGCAGAGCUCAACACAGCGUGGCAAAGUGGCUGUGGCUAGACUGCCUCUCUGGAUUCCUCGUCACCCAGCAGGGCAUCUCUGAGAGAAAUGCC | 1.12
9 | UACGUAGGUGGUUUUCCCCUGAUAGUGUUAAGGGGGCCUGGAAGUUUGGACUGGGCAGAGCUCAACACAGCGUGGCAAAGUGGCUGUGGCUGGACUGCCUCUCUGGAUUCCUCGUCACUCAGCAGGGCAUCUCUGAGAGAAAUGCC | 0.11
10 | UACGUAGGUGGUUUUCCCCUGAUAGUGUUAAGGGGGCCUGGAAGUUUGGACUGGGCAGAGCUCAACACAGCGUGGCAAAGUGGUUGUGGCUAGACUGCCUCUCUGGAUUCCUCGUCACUCAGCAGGGCAUCUCUGAGAGAAAUGCC | 0.25
11 | UACGUAGGUGGUUUUCCCCUGAUAGUGUUAAGGGGGCCUGGACGUUUGGACUGGGCAGAGCUCAACACAGCGUGGCAAAGUGGCUGUGGCUAGACUGCCUCUCUGGAUUCCUCGUCACUCAGCAGGGCAUCUCUGAGAGAAAUGCC | 1.2
12 | UACGUAGGUGGUUUUCCCCUGAUAGUGUUAAGGGGGCCUGGAAGUUUGGACUGGGCAGAGCUCAACACAGCGUGGCAAAGUGGCUGUGGCUAGACUGCCUCCCUGGAUUCCUCGUCACUCAGCAGGGCAUCUCUGAGAGAAAUGCC | 0.15
13 | UACGUAGGUGGUUUUCCCCUGAUAGUGUUAAGGGGGCCUGGAAGUUUGGACUGGGCAGAGCUCAACACAGCGUGGCAAAGUGGCUGUGGCUAGACUGCCUCUCUGGAUUCCUCGUCACUCAGCAGGGCAUCUCUGAGAGUAAUGCC | 0.95
14 | UACGUAGGUGGUUUUCCCCUGAUAGUGUUAAGGGGGCCUGGAAGUUUGGACUGGGCAGAGCUCAACACAGCGUGGCAAAGUGGCUGUGUCUAGACUGCCUCUCUGGAUUCCUCGUCACUCAGCAGGGCAUCUCUGAGAGAAAUGCC | 0.06
15 | UACGUAGGUGGUUUUCCCCUGAUAGUGUUAAGGGGGCCUGGAAGUUUGGACUGGGCAGAGCUCAACACAGCGUGGCAAAGUGGCUGUGGCUAGACUGCCUCUCUGGAUUCCUCGUCACUCGGCAGGGCAUCUCUGAGAGAAAUGCC | 0.66
16 | UACGUAGGUGGUUUUCCCCUGAUAGUGUUAAGGGGGCCCGGAAGUUUGGACUGGGCAGAGCUCAACACAGCGUGGCAAAGUGGCUGUGGCUAGACUGCCUCUCUGGAUUCCUCGUCACUCAGCAGGGCAUCUCUGAGAGAAAUGCC | 0.97
17 | UACGUAGGUGGUUUUCCCCUGAUAGUGUUAAGGGGGCCUGGAAGUUUGGACUGGGCAGAGCUCAACACAGCGUGGCAAAGUGGCUGUGGCUAGACUGCCUCUCUGGAUUCCUCGUCACUCAGCAGGGCAUCUCUGAGGGAAAUGCC | 1.01
18 | UACGUAGGUGGUUUUCCCCUGAUAGUGUUAAGGGGGCCUGGAAGUUUGGACUGGGCAGAGCUCAACACAGCGUGGCAAAGUGGCUGUGGCUAGACUGCCUCUCUGGAUUCCUCGUCACUCAGCAGGGCACCUCUGAGAGAAAUGCC | 0.7
19 | UACGUAGGUGGUUUUCCCCUGAUAGUGUUAAGGGGGCCUGGAAGUUUGGACUGGGCAGAGCUCGACACAGCGUGGCAAAGUGGCUGUGGCUAGACUGCCUCUCUGGAUUCCUCGUCACUCAGCAGGGCAUCUCUGAGAGAAAUGCC | 0.16
20 | UACGUAGGUGGUUUUCCCCUGAUAGUGUUAAGGGGGCCUGGAAGUUUGGACUGGGCAGAGCUCUACACAGCGUGGCAAAGUGGCUGUGGCUAGACUGCCUCUCUGGAUUCCUCGUCACUCAGCAGGGCAUCUCUGAGAGAAAUGCC | 0.33
